From paper PMC9271601

Target: H7N9 A/Shanghai/2/2013 hemagglutinin trimer, wild type (influenza A virus A/Shanghai/02/2013 (H7N9)) (UniProt R4NN21)
Assay: cryo-EM structure

“H7N9 A/Shanghai/2/2013 hemagglutinin trimer, wild type (from UniProt R4NN21) (natural protein)” gave a stoichiometry N of 3.
